Assay [1] has as its target T1, human SIRPα variant 1 (human, UniProt P78324 31-504).
T1 construct: full length ORF on transfected CHO-K1 or HEK293 cells; entry includes the signal peptide; also called hSIRPαV1; SIRPαV1
In words: flow cytometry, blockade of DyLight488-hCD47/Fc binding to U-937 cells. The protocol: hCD47 blockade for the KWAR23, clone 18D5, and hSIRPα.40A antibodies was assessed by flow cytometry. For this purpose, THP-1 (ATCC TIB-202) and U-937 (ATCC CRL-1593.2) monocyte cell lines were used as the source of hSIRPα in the assay. THP-1 and U-937 cells were seeded in 96-well round bottomed tissue culture plates and incubated for 45 minutes with FcR Blocking Reagent (Miltenyi Biotec) and indicated anti-hSIRPα antibodies (20 μg/mL and dilutions thereof) in PBS/1% BSA at 4° C. […] After this labeling procedure, cells were washed two times, resuspended in PBS/1% BSA containing 0.1 μg/mL DAPI (BioLegend), and analysed by flow cytometry on the FACSVerse (BD Biosciences). Data were processed and analysed with FlowJo V10 software (FlowJo, LLC) and plotted using GraphPad Prism 6 (GraphPad Software, Inc.). Binding of recombinant hCD47 fused to an Fc domain of human IgG1 was monitored in the presence of increasing amounts of the anti-hSIRPα antibodies. […] IC50 values represent the concentration at which half of the inhibition is observed.
Background: In flow cytometry, cells or beads pass a laser one at a time.

For assay [2], the target named is T2, hSIRPαV1(P74A) (human, UniProt P78324 31-504).
T2 construct: also called P74A variant of hSIRPαV1
T2 sequence (P78324 31-504 P74A limits assumed): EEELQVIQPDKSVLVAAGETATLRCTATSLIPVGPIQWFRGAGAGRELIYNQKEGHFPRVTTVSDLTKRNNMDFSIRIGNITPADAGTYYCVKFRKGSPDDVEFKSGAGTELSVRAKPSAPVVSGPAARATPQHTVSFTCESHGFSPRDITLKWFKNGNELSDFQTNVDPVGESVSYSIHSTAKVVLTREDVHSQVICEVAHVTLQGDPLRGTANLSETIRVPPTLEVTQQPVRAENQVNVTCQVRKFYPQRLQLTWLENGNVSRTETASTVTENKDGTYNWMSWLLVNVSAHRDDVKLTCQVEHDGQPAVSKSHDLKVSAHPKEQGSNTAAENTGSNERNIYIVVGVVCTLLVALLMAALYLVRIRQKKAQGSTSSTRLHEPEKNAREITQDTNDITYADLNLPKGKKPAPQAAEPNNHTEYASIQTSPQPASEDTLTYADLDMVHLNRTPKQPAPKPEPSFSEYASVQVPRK
In words: CELISA, CHO-K1 transfectants. The protocol:
(§1) The specificity of monoclonal anti-hSIRPα antibodies (e.g., including the hSIRPα antibodies known in the art, KWAR23 (U.S. Patent CA2939293 A1), 18D5 (Patent WO2017/178653 A2), and various commercially available hSIRPα antibodies) for binding to hSIRPαV1, hSIRPαV1(P74A), and hSIRPβ1 was evaluated by CELISA. Reactivity was confirmed using CHO-K1 cells (ATCC CCL-61) expressing a cDNA encoding the full length open reading frame of hSIRPαV1, hSIRPαV1(P74A), and hSIRPβ1 subcloned into the pCI-neo vector (Promega, Madison, Wis.). CHO-K1.hSIRPαV1, CHO-K1.hSIRPαV1(P74A), and CHO-K1.hSIRPβ1 cells were seeded in culture medium (DMEM-F12 (Gibco) supplemented with 5% New Born Calf Serum (BioWest) and Pen/Strep (Gibco)) in 96-well flat-bottom tissue culture plates and incubated at 37° C., 5% CO₂ and 95% humidity for 24 hours. Subsequently, culture medium was removed and cells were incubated for 1 hour at 37° C., 5% CO₂ and 95% humidity with purified hSIRPα antibodies (used at 10 μg/ml and dilutions thereof). Next, cells were washed with PBS-T and incubated for 1 hour at 37° C., 5% CO₂ and 95% humidity with either goat-anti-mouse IgG-HRP (Southern Biotech), goat-anti-human IgG-HRP (Jackson Immuno Research), or goat-anti-rabbit IgG-HRP (Southern Biotech). Subsequently, cells were washed three times with PBS-T and immunoreactivity against hSIRPαV1, hSIRPαV1(P74A), and hSIRPβ1 was visualized with TMB Stabilized Chromogen (Invitrogen). Reactions were stopped with 0.5 M H₂SO₄ and absorbances were read at 450 and 610 nm.

The target of assay [3] is T1, human SIRPα variant 1. In words: CELISA, CHO-K1 transfectants. The protocol: as §1
Assay [4] addresses T3, human SIRPβ1 (human, UniProt O00241 30-398).
T3 construct: also called hSIRPβ1
In words: CELISA, CHO-K1 transfectants. The protocol:
as §1

For another assay, the target named is T4, human SIRPγ (human, UniProt Q9P1W8 29-387).
T4 construct: on transfected CHO-K1 cells; also called hSIRPγ
T4 sequence (Q9P1W8 29-387 limits assumed): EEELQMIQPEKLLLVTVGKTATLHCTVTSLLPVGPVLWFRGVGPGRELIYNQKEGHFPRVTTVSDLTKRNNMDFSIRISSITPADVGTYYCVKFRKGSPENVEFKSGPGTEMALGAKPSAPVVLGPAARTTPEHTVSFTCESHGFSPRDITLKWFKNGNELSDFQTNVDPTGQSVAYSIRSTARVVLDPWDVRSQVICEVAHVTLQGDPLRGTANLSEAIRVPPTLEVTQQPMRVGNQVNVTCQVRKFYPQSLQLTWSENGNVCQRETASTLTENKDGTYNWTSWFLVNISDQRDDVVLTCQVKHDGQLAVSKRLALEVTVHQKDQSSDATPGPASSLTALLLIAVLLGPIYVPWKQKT
Put plainly: flow cytometry, Jurkat E6.1 cells; nd = not detected. The protocol:
Binding to hSIRPγ was assessed by flow cytometry using the Jurkat E6.1 T cell leukemia cell line (ECACC 88042803). Jurkat cells were seeded in 96-well round bottomed tissue culture plates and incubated for 40 minutes with the anti-hSIRPα antibodies (20 μg/mL and dilutions thereof) in PBS/1% BSA at 4° C. […] After this labeling procedure, cells were washed two times, resuspended in PBS/1% BSA, containing 0.1 μg/mL DAPI (BioLegend), and analysed by flow cytometry on the FACSVerse (BD Biosciences). Data were processed and analysed with FlowJo V10 software (FlowJo, LLC).

A further assay concerns the target T5, human SIRPα variant 2 (human, UniProt P78324 31-504).
T5 construct: full length ORF on transfected CHO-K1 cells; also called hSIRPαV2; SIRPαV2
Put plainly: CELISA, CHO-K1 transfectants; nd = not detected. Here is the method: as §1, with “Reactivity” for “The specificity of monoclonal anti-hSIRPα antibodies (e.g., including the hSIRPα antibodies known in the art, KWAR23 (U.S. Patent CA2939293 A1), 18D5 (Patent WO2017/178653 A2), and various commercially available hSIRPα antibodies) for binding to hSIRPαV1, hSIRPαV1(P74A), and hSIRPβ1 was evaluated by CELISA. Reactivity”, “hSIRPαV1(P74A), hSIRPαV2,” for “hSIRPαV1(P74A),”, “CHO-K1.hSIRPαV1(P74A), CHO-K1.hSIRPαV2,” for “CHO-K1.hSIRPαV1(P74A),”, “μg/mL” for “μg/ml”, “with” for “with either”, “goat-anti-mouse” for “goat-anti-mouse IgG-HRP (Southern Biotech), goat-anti-human IgG-HRP (Jackson Immuno Research), or goat-anti-rabbit”

Assay [5] concerns the target T2, hSIRPαV1(P74A). Put plainly: CELISA, CHO-K1 transfectants. The protocol:
as §1, with “Reactivity” for “The specificity of monoclonal anti-hSIRPα antibodies (e.g., including the hSIRPα antibodies known in the art, KWAR23 (U.S. Patent CA2939293 A1), 18D5 (Patent WO2017/178653 A2), and various commercially available hSIRPα antibodies) for binding to hSIRPαV1, hSIRPαV1(P74A), and hSIRPβ1 was evaluated by CELISA. Reactivity”, “hSIRPαV1(P74A), hSIRPαV2,” for “hSIRPαV1(P74A),”, “CHO-K1.hSIRPαV1(P74A), CHO-K1.hSIRPαV2,” for “CHO-K1.hSIRPαV1(P74A),”, “μg/mL” for “μg/ml”, “with” for “with either”, “goat-anti-mouse” for “goat-anti-mouse IgG-HRP (Southern Biotech), goat-anti-human IgG-HRP (Jackson Immuno Research), or goat-anti-rabbit”
The source holds these as a separate data set.

Assay [6] deals with T1, human SIRPα variant 1. Put plainly: CELISA, CHO-K1 transfectants. Here is the method: as §1, with “Reactivity” for “The specificity of monoclonal anti-hSIRPα antibodies (e.g., including the hSIRPα antibodies known in the art, KWAR23 (U.S. Patent CA2939293 A1), 18D5 (Patent WO2017/178653 A2), and various commercially available hSIRPα antibodies) for binding to hSIRPαV1, hSIRPαV1(P74A), and hSIRPβ1 was evaluated by CELISA. Reactivity”, “hSIRPαV1(P74A), hSIRPαV2,” for “hSIRPαV1(P74A),”, “CHO-K1.hSIRPαV1(P74A), CHO-K1.hSIRPαV2,” for “CHO-K1.hSIRPαV1(P74A),”, “μg/mL” for “μg/ml”, “with” for “with either”, “goat-anti-mouse” for “goat-anti-mouse IgG-HRP (Southern Biotech), goat-anti-human IgG-HRP (Jackson Immuno Research), or goat-anti-rabbit”
This is another data set of the same source.

For assay [7], the target named is T3, human SIRPβ1. Put plainly: CELISA, CHO-K1 transfectants. The protocol:
as §1, with “Reactivity” for “The specificity of monoclonal anti-hSIRPα antibodies (e.g., including the hSIRPα antibodies known in the art, KWAR23 (U.S. Patent CA2939293 A1), 18D5 (Patent WO2017/178653 A2), and various commercially available hSIRPα antibodies) for binding to hSIRPαV1, hSIRPαV1(P74A), and hSIRPβ1 was evaluated by CELISA. Reactivity”, “hSIRPαV1(P74A), hSIRPαV2,” for “hSIRPαV1(P74A),”, “CHO-K1.hSIRPαV1(P74A), CHO-K1.hSIRPαV2,” for “CHO-K1.hSIRPαV1(P74A),”, “μg/mL” for “μg/ml”, “with” for “with either”, “goat-anti-mouse” for “goat-anti-mouse IgG-HRP (Southern Biotech), goat-anti-human IgG-HRP (Jackson Immuno Research), or goat-anti-rabbit”
The source holds these as a separate data set.

Read-outs that look alike come from different tables or passages of the source.

T1 sequence (P78324 31-504 limits assumed, change not shown): as the sequence (P78324 31-504 P74A limits assumed) above, with A44P counted along it
T3 sequence (O00241 30-398 limits assumed): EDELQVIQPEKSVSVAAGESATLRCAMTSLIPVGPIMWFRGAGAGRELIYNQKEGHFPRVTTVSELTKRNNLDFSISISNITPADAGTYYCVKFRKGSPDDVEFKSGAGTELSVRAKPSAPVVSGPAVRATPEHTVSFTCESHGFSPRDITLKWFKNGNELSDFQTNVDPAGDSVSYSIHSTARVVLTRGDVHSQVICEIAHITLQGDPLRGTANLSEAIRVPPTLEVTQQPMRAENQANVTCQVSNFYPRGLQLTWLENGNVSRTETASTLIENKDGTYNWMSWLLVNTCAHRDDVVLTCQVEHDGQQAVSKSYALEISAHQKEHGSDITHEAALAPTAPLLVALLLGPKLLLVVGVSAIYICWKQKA
T5 sequence (P78324 other isoform, or with tags, fused parts or gaps mutant limits assumed): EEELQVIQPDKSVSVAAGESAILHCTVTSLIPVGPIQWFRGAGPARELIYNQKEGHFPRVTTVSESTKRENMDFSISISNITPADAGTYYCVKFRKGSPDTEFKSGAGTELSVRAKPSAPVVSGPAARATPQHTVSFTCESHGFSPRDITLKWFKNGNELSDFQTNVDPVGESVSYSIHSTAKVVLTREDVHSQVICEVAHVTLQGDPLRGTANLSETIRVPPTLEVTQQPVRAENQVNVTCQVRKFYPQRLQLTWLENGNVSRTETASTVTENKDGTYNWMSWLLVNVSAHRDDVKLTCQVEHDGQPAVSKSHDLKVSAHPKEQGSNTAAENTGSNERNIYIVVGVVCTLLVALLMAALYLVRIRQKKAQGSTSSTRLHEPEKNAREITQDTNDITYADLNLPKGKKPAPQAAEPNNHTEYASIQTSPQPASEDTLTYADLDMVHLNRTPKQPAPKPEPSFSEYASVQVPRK

B1: 18D5 (antibody, V domains shown)
VH: QVQLQQPGAELVRPGSSVKLSCKASGYTFTSYWVHWVKQRPIQGLEWIGNIDPSDSDTHYNQKFKDKASLTVDKSSSTAYMQLSSLTFEDSAVYYCVRGGTGTMAWFAYWGQGTLVTVSA
VL: DVVMTQTPLSLPVSLGDQASISCRSSQSLVHSYGNTYLYWYLQKPGQSPKLLIYRVSNRFSGVPDRFSGSGSGTDFTLKISRVEAEDLGVYFCFQGTHVPYTFGSGTKLEIK
notes: from WO2017/178653; also called clone 18D5
B1: the IC50 – broadly, the concentration at which inhibition is half-maximal – with human SIRPα variant 1 [1] was determined as 1.52 nM. Besides, the concentration giving a half-maximal response (EC50) (as a rule, the concentration needed to bring the measured effect to its halfway point) with hSIRPαV1(P74A) [2] came to 0.073 nM; with human SIRPα variant 1 [3] it was 0.128 nM; with human SIRPβ1 [4], 0.064 nM; with hSIRPαV1(P74A) [5], 0.055 nM; in the assay with human SIRPα variant 1 [6], 0.134 nM; in the assay with human SIRPβ1 [7], 0.055 nM. For the same molecule, the binding result with human SIRPγ is “no binding (tested: 20 µg/mL and dilutions thereof)”; with human SIRPα variant 2, “no binding (tested: 10 µg/mL and dilutions thereof)”.

The record behind these values is patent US20180312587A1 (ADURO BIOTECH HOLDINGS EUROPE B V, published 2018).
